Reference: patent publication US20150079071A1 (University of California, published 2015)
Blank lines part the entries; values can stand above or below the binder they belong to.

What was measured:
[1] = biological target: T1, heat-shock protein 90β (HSP90β), endogenous, in conditioned medium of SCp2 cells (mouse, UniProt P11499 2-724); experiment: reverse co-IP of HSP90β protein complexes from CM of control SCp2 cells, Western blot
T1 construct: also called HSP90b; extracellular HSP90β
Protocol: For co-IP of HSP90β protein complexes, CM was incubated with 10 μg of control rabbit IgG or anti-HSP90β antibody for 16 h at 4° C. Precipitation was performed with protein G sepharose beads (17-0618-01, GE Healthcare) for 4 h at 4° C. The beads were then washed three times with 0.05% Tween/PBS, and the immune complexes were directly eluted with electrophoresis sample buffer and analyzed by Western blotting.

[2] = biological target: T2, Itgb1 (endogenous mouse integrin-beta1 of EpH4 mammary epithelial cells) (mouse, UniProt P09055 21-798); experiment: anti-FLAG M2 bead IP from EpH4 lysate, Western blot for Itgb1
T2 construct: Endogenous protein in EpH4 cell lysate; also called integrin-β1
T2 sequence (P09055 21-798 limits assumed): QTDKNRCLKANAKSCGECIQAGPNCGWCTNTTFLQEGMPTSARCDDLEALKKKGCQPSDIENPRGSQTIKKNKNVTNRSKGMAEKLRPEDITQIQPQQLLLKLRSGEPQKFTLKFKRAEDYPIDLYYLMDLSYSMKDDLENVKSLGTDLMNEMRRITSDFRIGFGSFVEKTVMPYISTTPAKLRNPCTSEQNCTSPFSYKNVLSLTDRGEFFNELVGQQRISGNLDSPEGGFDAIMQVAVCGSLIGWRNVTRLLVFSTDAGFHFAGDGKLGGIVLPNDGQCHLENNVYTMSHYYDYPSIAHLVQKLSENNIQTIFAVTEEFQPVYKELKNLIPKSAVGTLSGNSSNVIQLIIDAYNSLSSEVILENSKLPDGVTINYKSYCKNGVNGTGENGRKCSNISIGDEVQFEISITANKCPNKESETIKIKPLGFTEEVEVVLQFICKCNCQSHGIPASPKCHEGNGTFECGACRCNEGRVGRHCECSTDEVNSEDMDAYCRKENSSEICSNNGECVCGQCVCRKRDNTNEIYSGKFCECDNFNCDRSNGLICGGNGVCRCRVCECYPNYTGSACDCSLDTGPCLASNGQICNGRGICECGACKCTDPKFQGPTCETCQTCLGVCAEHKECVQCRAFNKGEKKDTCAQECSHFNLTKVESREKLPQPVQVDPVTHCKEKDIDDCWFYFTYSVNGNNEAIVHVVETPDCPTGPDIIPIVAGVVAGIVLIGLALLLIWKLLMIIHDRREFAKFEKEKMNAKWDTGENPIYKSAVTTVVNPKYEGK
Source text: FIG. 14. […] The heat map indicator is presented to show the intensity of the FRET signal. (iv) Quantification of FRET signals. ˜200 FRET signals were quantified on each condition. Data are mean+/−S.E., (****) indicates p<0.001. […] Immuno-complexes are used for IP-WB analysis.

T1 sequence (P11499 2-724 limits assumed): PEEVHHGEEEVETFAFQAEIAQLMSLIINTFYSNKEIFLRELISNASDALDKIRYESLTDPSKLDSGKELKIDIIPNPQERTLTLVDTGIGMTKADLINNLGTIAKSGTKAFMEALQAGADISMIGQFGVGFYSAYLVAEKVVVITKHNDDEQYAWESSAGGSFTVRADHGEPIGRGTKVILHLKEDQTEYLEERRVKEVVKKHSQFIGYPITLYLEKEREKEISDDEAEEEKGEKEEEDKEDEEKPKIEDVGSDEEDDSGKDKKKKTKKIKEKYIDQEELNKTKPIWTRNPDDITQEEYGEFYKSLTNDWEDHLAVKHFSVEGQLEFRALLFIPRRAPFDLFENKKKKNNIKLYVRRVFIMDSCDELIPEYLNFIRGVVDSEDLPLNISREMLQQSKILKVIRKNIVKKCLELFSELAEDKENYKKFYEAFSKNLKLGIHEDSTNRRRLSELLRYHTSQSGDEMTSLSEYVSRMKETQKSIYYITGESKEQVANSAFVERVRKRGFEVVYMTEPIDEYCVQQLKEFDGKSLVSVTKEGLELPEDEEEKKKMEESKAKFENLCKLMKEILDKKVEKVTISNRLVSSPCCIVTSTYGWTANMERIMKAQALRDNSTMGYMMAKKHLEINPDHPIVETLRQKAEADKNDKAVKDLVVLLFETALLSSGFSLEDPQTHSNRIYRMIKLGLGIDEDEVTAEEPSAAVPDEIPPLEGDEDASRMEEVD

binding result [1]: no binding
B1: annexin A2 (ANXA2), endogenous, in conditioned medium of SCp2 cells (other, mouse, UniProt P07356 2-339, looked up)
chain: STVHEILCKLSLEGDHSTPPSAYGSVKPYTNFDAERDALNIETAVKTKGVDEVTIVNILTNRSNVQRQDIAFAYQRRTKKELPSALKSALSGHLETVILGLLKTPAQYDASELKASMKGLGTDEDSLIEIICSRTNQELQEINRVYKEMYKTDLEKDIISDTSGDFRKLMVALAKGRRAEDGSVIDYELIDQDARELYDAGVKRKGTDVPKWISIMTERSVCHLQKVFERYKSYSPYDMLESIKKEVKGDLENAFLNLVQCIQNKPLYFADRLYDSMKGKGTRDKVLIRIMVSRSEVDMLKIRSEFKRKYGKSLYYYIQQDTKGDYQKALLYLCGGDD

binding result [1]: no binding
B2: myristoylated alanine-rich C-kinase substrate (MARCKS), endogenous, in conditioned medium of SCp2 cells (other, mouse, UniProt P26645 2-309, looked up)
chain: GAQFSKTAAKGEATAERPGEAAVASSPSKANGQENGHVKVNGDASPAAAEPGAKEELQANGSAPAADKEEPASGSAATPAAAEKDEAAAATEPGAGAADKEAAEAEPAEPSSPAAEAEGASASSTSSPKAEDGAAPSPSSETPKKKKKRFSFKKSFKLSGFSFKKSKKESGEGAEAEGATAEGAKDEAAAAAGGEGAAAPGEQAGGAGAEGAAGGEPREAEAAEPEQPEQPEQPAAEEPQAEEQSEAAGEKAEEPAPGATAGDASSAAGPEQEAPAATDEAAASAAPAASPEPQPECSPEAPPAPTAE

binding result [2]: no binding
B3: MMP14F-dCAT (FLAG tagged human MMP14, catalytic domain deleted mutant, deletion of Tyr112-Pro312) (enzyme)
chain: not shown
notes: also called MMP14dCAT; not shown: FLAG tag
